One substance from paper PMC5487423 can be followed below.

For this assay, the target named is P991_AMBCA, purified, C-terminal StrepII-8xHis tag (Amblyomma cajennense). As to the kind of experiment: BLI; Kd and koff determination: His-tagged evasin immobilised on Ni-NTA biosensor (OctetRed), chemokine dilutions from 300 nM to 0.4 nM, 30 °C, same buffer as the screen; reference protein subtracted; 1:1 model with global fit, or steady state; each experiment once.

For “CCL13 (from UniProt Q99616 17-98) (ligand)”, the dissociation half-life was 2.72 h.
